Results published in patent publication US20210123927A1.

Target: galactose-deficient IgA1 (Gd-IgA1), enzymatically generated (UniProt P01876)
Experiment: dot blot, anti-His detection

Chain of UniProt P01876 (P01876 other isoform, or with tags, fused parts or gaps): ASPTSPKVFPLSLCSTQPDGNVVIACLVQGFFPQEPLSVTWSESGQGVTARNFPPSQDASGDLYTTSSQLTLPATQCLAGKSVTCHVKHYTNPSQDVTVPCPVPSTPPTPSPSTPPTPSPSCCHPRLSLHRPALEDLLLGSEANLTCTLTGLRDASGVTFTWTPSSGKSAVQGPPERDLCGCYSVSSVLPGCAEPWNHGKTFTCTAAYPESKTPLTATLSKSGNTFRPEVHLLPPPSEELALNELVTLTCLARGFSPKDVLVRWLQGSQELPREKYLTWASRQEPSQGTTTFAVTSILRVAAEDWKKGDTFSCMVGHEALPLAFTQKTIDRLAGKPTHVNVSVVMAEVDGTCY

- amount of Gd-IgA1 detected in dot blot: > 1 µg
Substance: RussiaSea-001 (Crenomytilus grayanus lectin/CGL), His-tagged (artificial RussiaSea-001) (from UniProt H2FH31 1-150)
